Test [1] has as its target mDR5ectm-td1, extracellular and transmembrane domains of murine DR5 fused to tetanus toxin fragment (mouse). Briefly: flow cytometry on SKOV3 cells transfected with murine DR5 (mDR5ectm-td1).
For test [2], the target named is full length wild type human DR5 (human) (UniProt O14763). Briefly: cell-based or functional assay.
UniProt O14763, sequence (O14763 other isoform, or with tags, fused parts or gaps limits assumed): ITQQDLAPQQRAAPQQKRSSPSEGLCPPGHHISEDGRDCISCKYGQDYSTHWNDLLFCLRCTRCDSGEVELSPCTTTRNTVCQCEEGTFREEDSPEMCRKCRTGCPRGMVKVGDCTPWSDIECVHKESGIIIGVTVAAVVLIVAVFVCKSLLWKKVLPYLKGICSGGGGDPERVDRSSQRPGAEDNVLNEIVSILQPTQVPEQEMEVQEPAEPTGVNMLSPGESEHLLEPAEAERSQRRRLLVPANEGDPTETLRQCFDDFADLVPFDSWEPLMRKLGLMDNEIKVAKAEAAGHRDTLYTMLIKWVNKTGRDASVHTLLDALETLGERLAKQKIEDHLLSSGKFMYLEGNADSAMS

In test [1], MD5-1, monoclonal antibody to mouse DR5 displayed a percent of cells stained of 100%.
In test [2], “human DR5 agonist monoclonal antibody mAb631 (clone 71903, MAB631; R&D Systems)” registered a growth inhibition of SUM159 cells (MTT) at 1 µg/mL antibody of 36%, a growth inhibition of SUM159 cells (MTT) at 2 µg/mL antibody of 55% and a growth inhibition of SUM159 cells (MTT) at 4 µg/mL antibody of 65%.

These data come from patent publication US20120189572A1.
